Reference: the Immune Epitope Database (IEDB)

Tests used:
HLA-A*01:01 [1] = test: IEDB peptide-MHC binding, purified MHC/competitive/fluorescence; filed as Kd, often an IC50 or EC50 that approximates it; ≥ and ≤ were set here for values at or beyond the usual limits of such assays; details: source organism: Human immunodeficiency virus 1
HLA-B*15:01 [2] = test: as above
HLA-B*08:01 [3] = test: as above; details: source organism: Human immunodeficiency virus 1
HLA-B*15:09 [4] = test: as above
HLA-A*30:01 = test: as above; details: source organism: Human immunodeficiency virus 1
HLA-B*15:17 [5] = test: as above; details: source organism: Human immunodeficiency virus 1
HLA-B*38:01 [6] = test: as above; details: source organism: Human immunodeficiency virus 1
HLA-B*39:01 = test: as above
HLA-A*26:01 [7] = test: as above; details: source organism: Cryptosporidium parvum Iowa II
HLA-B*51:01 = test: as above; details: source organism: Cryptosporidium parvum Iowa II
HLA-A*29:02 = test: as above; details: source organism: Cryptosporidium parvum Iowa II
HLA-B*18:01 = test: as above; details: source organism: Cryptosporidium parvum Iowa II
HLA-B*46:01 [8] = test: as above; details: source organism: Cryptosporidium parvum Iowa II
HLA-B*57:01 [9] = test: as above; details: source organism: Cryptosporidium parvum Iowa II
HLA-B*27:03 = test: as above; details: source organism: Cryptosporidium parvum Iowa II
HLA-A*80:01 = test: as above; details: source organism: Cryptosporidium parvum Iowa II
HLA-B*58:01 = test: IEDB peptide-MHC binding, purified MHC/direct/fluorescence; filed as Kd, often an IC50 or EC50 that approximates it; ≥ and ≤ were set here for values at or beyond the usual limits of such assays
HLA-B*07:02 = test: as above; details: source organism: Marburg virus - Musoke, Kenya, 1980
HLA-A*01:01 [10] = test: as above
HLA-B*15:01 [11] = test: as above
HLA-B*08:01 [12] = test: as above
HLA-B*46:01 [13] = test: as above
HLA-A*11:01 [14] = test: as above; details: source organism: Marburg virus - Musoke, Kenya, 1980
HLA-B*57:01 [15] = test: as above
HLA-A*31:01 = test: as above
HLA-A*68:02 = test: as above; details: source organism: Marburg virus - Musoke, Kenya, 1980
HLA-A*69:01 = test: as above
HLA-B*48:01 = test: as above
HLA-A*02:01 = test: as above
HLA-B*27:05 = test: as above
HLA-B*15:17 [16] = test: as above
HLA-A*26:03 = test: as above; details: source organism: Orthomarburgvirus marburgense
HLA-B*35:01 = test: IEDB peptide-MHC binding, purified MHC/competitive/fluorescence; filed as Kd, often an IC50 or EC50 that approximates it; ≥ and ≤ were set here for values at or beyond the usual limits of such assays; details: source organism: Orthomarburgvirus marburgense
HLA-A*26:02 = test: as above; details: source organism: Orthomarburgvirus marburgense
HLA-A*26:01 [17] = test: IEDB peptide-MHC binding, purified MHC/direct/fluorescence; filed as Kd, often an IC50 or EC50 that approximates it; ≥ and ≤ were set here for values at or beyond the usual limits of such assays; details: source organism: Candidatus Rickettsia tarasevichiae
HLA-B*40:01 = test: as above; details: source organism: Rickettsia canadensis
HLA-B*15:09 [18] = test: as above; details: source organism: Candidatus Rickettsia tarasevichiae
HLA-A*03:01 = test: as above; details: source organism: Rickettsia canadensis
HLA-B*38:01 [19] = test: as above; details: source organism: Candidatus Rickettsia tarasevichiae
HLA-A*11:01 [20] = test: IEDB peptide-MHC binding, purified MHC/competitive/fluorescence; filed as Kd, often an IC50 or EC50 that approximates it; ≥ and ≤ were set here for values at or beyond the usual limits of such assays; details: source organism: Rickettsia canadensis
[21] = source organism: Human immunodeficiency virus 1
[22] = source organism: Cryptosporidium parvum Iowa II
[23] = source organism: Marburg virus - Musoke, Kenya, 1980
[24] = source organism: Orthomarburgvirus marburgense
[25] = source organism: Rickettsia canadensis

GSEEIKSLF
Kd (HLA-A*01:01 [1]): ≥ 20 µM
Kd (HLA-B*15:01 [2]; [21]): ≥ 20 µM
Kd (HLA-B*08:01 [3]): ≥ 20 µM
Kd (HLA-B*15:09 [4]; [21]): ≥ 20 µM
Kd (HLA-A*30:01): ≥ 20 µM
Kd (HLA-B*15:17 [5]): 0.182 µM
Kd (HLA-B*38:01 [6]): ≥ 20 µM

KLGDITLFL
Kd (HLA-B*39:01; [22]): ≥ 20 µM
Kd (HLA-A*26:01 [7]): ≥ 20 µM
Kd (HLA-B*51:01): ≥ 20 µM
Kd (HLA-A*29:02): 0.0341 µM
Kd (HLA-B*15:01 [2]; [22]): ≥ 20 µM
Kd (HLA-B*18:01): ≥ 20 µM
Kd (HLA-B*46:01 [8]): ≥ 20 µM
Kd (HLA-B*57:01 [9]): ≥ 20 µM
Kd (HLA-B*27:03): ≥ 20 µM
Kd (HLA-A*80:01): 0.0156 µM

NQECWDSVF
Kd (HLA-B*58:01; [23]): ≥ 20 µM
Kd (HLA-B*07:02): ≥ 20 µM
Kd (HLA-A*01:01 [10]; [23]): ≥ 20 µM
Kd (HLA-B*15:01 [11]; [23]): 0.373 µM
Kd (HLA-B*08:01 [12]; [24]): ≥ 20 µM
Kd (HLA-B*46:01 [13]; [23]): ≥ 20 µM
Kd (HLA-A*11:01 [14]): ≥ 20 µM
Kd (HLA-B*57:01 [15]; [23]): ≥ 20 µM
Kd (HLA-A*31:01; [23]): ≥ 20 µM
Kd (HLA-A*68:02): ≥ 20 µM
Kd (HLA-A*69:01; [23]): ≥ 20 µM
Kd (HLA-B*48:01; [23]): ≥ 20 µM
Kd (HLA-A*02:01; [23]): ≥ 20 µM
Kd (HLA-B*27:05; [23]): ≥ 20 µM
Kd (HLA-B*15:17 [16]; [23]): ≥ 20 µM
Kd (HLA-A*26:03): ≥ 20 µM
Kd (HLA-B*39:01; [24]): 0.364 µM
Kd (HLA-B*35:01): 0.216 µM
Kd (HLA-B*15:09 [4]; [24]): 2.52 µM
Kd (HLA-A*26:02): 0.384 µM

SSEADCFTY
Kd (HLA-A*26:01 [17]): ≥ 20 µM
Kd (HLA-B*58:01; [25]): ≥ 20 µM
Kd (HLA-B*40:01): ≥ 20 µM
Kd (HLA-A*01:01 [10]; [25]): 0.0553 µM
Kd (HLA-B*15:01 [11]; [25]): ≥ 20 µM
Kd (HLA-B*08:01 [12]; source organism: Candidatus Rickettsia tarasevichiae): ≥ 20 µM
Kd (HLA-B*46:01 [13]; [25]): ≥ 20 µM
Kd (HLA-B*57:01 [15]; [25]): ≥ 20 µM
Kd (HLA-B*15:09 [18]): ≥ 20 µM
Kd (HLA-A*31:01; [25]): ≥ 20 µM
Kd (HLA-A*69:01; [25]): ≥ 20 µM
Kd (HLA-B*48:01; [25]): ≥ 20 µM
Kd (HLA-A*02:01; [25]): ≥ 20 µM
Kd (HLA-B*27:05; [25]): ≥ 20 µM
Kd (HLA-B*15:17 [16]; [25]): 0.0816 µM
Kd (HLA-A*03:01): ≥ 20 µM
Kd (HLA-B*38:01 [19]): ≥ 20 µM
Kd (HLA-A*11:01 [20]): ≥ 20 µM
